Laboratory results reported in US20250249111A1, “ERIBULIN-BASED ANTIBODY-DRUG CONJUGATES AND METHODS OF USE” (priority 2022, published 2025).

Key:
Format in all cases: in vivo, human
[1] = tested on: subjects with PROC and across tumor types (PROC, EC, TNBC, and NSCLC); experiment: Exposure-response (E-R) analysis for ILD in subjects with PROC and across all tumor types; conditions: N=96 in total (48/96); PROC 0.3 to 1.2 mg/kg Q3W and across tumor types 0.9 to 1.2 mg/kg Q3W
Protocol: An E-R analysis of ILD was conducted with data from subjects with PROC across the dose range of 0.3 to 1.2 mg/kg Q3W as well as subjects across tumor types (PROC, EC, TNBC, and NSCLC) across the dose range of 0.9 to 1.2 mg/kg Q3W (N=96 in total). Forty-eight subjects had ILD identified by expert review for an ILD rate of 50% (48/96) across both subject groups and dose ranges. AUC and age were significant predictors in multivariate analysis with both higher AUC and higher age predicting a higher probability of ILD. Weight, albumin, ECOG-PS (1 vs 0), Study, and tumor type (OC vs other) were not significant predictors. The probability of ILD by AUC was predicted at the median age (60 years) and plotted along with the observed ILD rate for each exposure quartile (as shown in FIG. 2).

[2] = tested on: platinum resistant ovarian cancer (PROC); experiment: Dose-response and exposure-response (E-R) analysis for ORR in subjects with PROC; conditions: for ORR (%): PROC
Protocol: MORAb-202 was administered to subjects (N=58) with platinum resistant ovarian cancer (PROC) over a body weight (BW)-based dose range of 0.3 to 1.2 mg/kg. All doses were administered at Q3W. A dose-response assessment was carried out to calculate a relationship between dose and objective response rate (ORR) over this dose range. Clinical pharmacology assessments were conducted to evaluate the dose relationships between MORAb-202 and objective response rates (ORR) or ILD. The dose-response relationships were calculated using logistic regression analyses. An E-R efficacy (ORR) analysis was conducted with PROC subjects (N=58) across the dose range of 0.3 to 1.2 mg/kg Q3W. […] Exposure (AUC) was the only significant predictor of the probability of an objective response in multivariate analysis (as shown in FIG. 1). Age, weight, non-high grade serous OC (versus high grade serous OC), ECOG-PS (1 vs 0), and expansion (versus dose escalation) were not significant predictors of an objective response (OR). Higher doses above 1.2 mg/kg Q3W would be expected to result in a higher probability of an OR, given linear PK and lack of saturation of OR across the current dose range. Based on the results of the E-R analysis, clinically meaningful efficacy is expected across the dose range of 0.68 to 1.2 mg/kg. However, as described in section 1.2.3, an overlapping AUC dependence to ILD is observed.

[3] = tested on: subjects with PROC, endometrial cancer (EC), triple negative breast cancer (TNBC), and non-small cell lung cancer (NSCLC); experiment: Dose-response relationship for ILD across tumor types
Protocol: MORAb-202 was administered to subjects (N=82) with PROC, endometrial cancer (EC), triple negative breast cancer (TNBC), and non-small cell lung cancer (NSCLC) over a body weight (BW)-based dose range of 0.3 to 1.2 mg/kg. All doses were administered at Q3W. A dose-response assessment was carried out to calculate a relationship between dose and ILD rate over this dose range.
Clinical pharmacology assessments were conducted to evaluate the dose relationships between MORAb-202 and objective response rates (ORR) or ILD. The dose-response relationships were calculated using logistic regression analyses.

[4] = tested on: subjects with ovarian cancer (OC) and endometrial cancer (EC); experiment: Preliminary results from Phase 1/2 trial, BSA-based dosing cohorts
From the text: MORAb-202 will be administered as an intravenous (IV) infusion once every 3 weeks (21-day cycle). Treatment will stop upon intolerable toxicity, disease progression, or subject withdrawal for any reason. The Dose-Confirmation part will evaluate the safety and preliminary efficacy of MORAb-202 at selected dose levels in subjects with OC and EC. There will be approximately 30 subjects in the Dose-Confirmation part in 4 study treatment cohorts. If at any time ≥2 Grade ≥3 ILD/pneumonitis (National Cancer Institute Common Terminology Criteria for Adverse Events [NCI CTCAE v5.0]) events are observed, the sponsor will pause enrollment, pending IDMC review. The initial cohort will enroll 6 subjects at 25 mg/m^2 of MORAb-202. The dosing regimen for this study is body surface area (BSA)-based dosing. The dose levels to be used in this portion of the study have been matched to body weight doses of 0.9 mg/kg and 0.68 mg/kg with BSA doses of 33 mg/m^2 and 25 mg/m^2 respectively. The BSA dose equivalents were confirmed using predictions from a MORAb-202 population PK model (described in Example 1). This revised dosing regimen has been implemented in the Dose-Confirmation part of this study due to the potential to reduce the ILD risk in higher body weight subjects whilst using doses within the therapeutic index of MORAb-202. The dose evaluation part of the study was designed with two sequential cohorts at 25 mg/m^2 and 33 mg/m^2. Enrollment has been completed in the two sequential cohorts. A total of 14 subjects were enrolled and treated with MORAb-202 with 7 subjects in each cohort. Further investigation will continue at 25 mg/m^2 Q3W. […] BSA-based dosing decreased the total amount of drug (mg) compared with BW-based estimated total dose in most subjects. Additional testing is planned for every two weeks and for once per week dosing regimens.

[5] = MORAb-202 population pharmacokinetics (PPK) model
Protocol: Different dosing regimens were simulated to select a dose of MORAb-202 that would minimize ILD rate while maintaining a high ORR. Stochastic simulations were conducted using the MORAb-202 population pharmacokinetics (PPK) model shown in Table 13 to predict AUC and Cmax for different dosing regimens. […] BW and serum albumin were significant covariates on CL (total clearance) and BW on volume of distribution. Five dosing regimens were simulated: 1) flat dose of 63 mg; 2) BW-based dose of 0.9 mg/kg; 3) BW-based dose of 0.9 mg/kg with a maximum total dose cap of 70 mg; 4) adjusted ideal body weight (AIBW)-based dose of 1.0 mg/kg; and 5) BSA-based dose of 33 mg/m^2 (equivalent to BW-based dose of 0.9 mg/kg). All dosing regimens were simulated on a Q3W treatment cycle.

[6] = PROC subjects (N=58), 0.3 to 1.2 mg/kg Q3W
[7] = BW-based dose 0.45 mg/kg Q3W, N = 3
[8] = BW-based dose 1.2 mg/kg Q3W, N = 24
[9] = 25 mg/m^2 Q3W, preliminary, 7 subjects per cohort

With MORAb-202 the “ILD rate (ILD identified by expert review)” value [1] was 50%, the ORR ([2]; PROC subjects (N=58) across the dose range of 0.3 to 1.2 mg/kg Q3W (23/58)) was 39.7% and the “subjects with a CR (complete response)” value [2, 6] was 2. The “subjects with a PR (partial response)” value [2, 6] was “Twenty-one”, the “ORR (%)” value ([2]; BW-based dose 0.3 mg/kg Q3W, N = 1) was 0 (0) % and the “ORR (%)” value [2, 7] was 0 (0) %. For the same substance, the “ORR (%)” value ([2]; BW-based dose 0.68 mg/kg Q3W, N = 2) was 50%, the “ORR (%)” value ([2]; BW-based dose 0.9 mg/kg Q3W, N = 28, 0.9 mg/kg) was 32.1% and the “ORR (%)” value [2, 8] was 54.2%. For the same substance, the “ILD (%)” value ([3]; BW-based dose 0.3 mg/kg Q3W, N = 3) was 0 (0) %, the “ILD (%)” value [3, 7] was 0 (0) % and the “ILD (%)” value ([3]; BW-based dose 0.68 mg/kg Q3W, N = 6) was 16.7%. For the same substance, the “ILD (%)” value ([3]; BW-based dose 0.9 mg/kg Q3W, N = 46) was 37.0%, the “ILD (%)” value [3, 8] was 58.3% and the “Mean PK profiles compared with those of a 0.68 mg/kg dose” value ([4]; 25 mg/m^2, MORAb-202, total antibody, and released eribulin) was “comparable”. For the same substance, the anti-tumor activity [4, 9] was “initial anti-tumor activity”, the safety [4, 9] was “Acceptable safety” and the “dose proportionality of exposures” value ([5]; PPK analysis) was “dose proportional”. The “Inter-Individual Variabilty R CL-V1” value ([5]; final PPK model) was 0.577, the “Q, estimate” value ([5]; final PPK model) was 0.008039 L/h and the “Residual Additive (SD, ug/mL)” value ([5]; final PPK model) was 0.0992 µg/mL. For the same substance, the “V1, estimate” value ([5]; final PPK model) was 2.482 L, the “V2, estimate” value ([5]; final PPK model) was 1.875 L and the “CL (total clearance), estimate” value ([5]; final PPK model, 2-compartment, IV infusion) was 0.01595 L/h. For the same substance, the “BW on V1 (exponent), estimate” value ([5]; final PPK model, covariate) was 0.559.
